Source: US20220017630A1 (JIANGSU SIMCERE PHARMACEUTICAL, published 2022)

Experiments:
[1] = biological target: T1, human TNFR2 on the cell surface (CHO-TNFR2 cells; human Treg cells) (human, UniProt P20333 23-461); experiment: flow cytometry, blocking of TNFα-biotin on CHO-TNFR2 cells; AUC for 002# / AUC for antibody x 100
T1 construct: whole, on cells; The assay field of each row says which cells; also called TNFR2-CHO cell; TNFR2 on Treg cells
T1 sequence (looked up): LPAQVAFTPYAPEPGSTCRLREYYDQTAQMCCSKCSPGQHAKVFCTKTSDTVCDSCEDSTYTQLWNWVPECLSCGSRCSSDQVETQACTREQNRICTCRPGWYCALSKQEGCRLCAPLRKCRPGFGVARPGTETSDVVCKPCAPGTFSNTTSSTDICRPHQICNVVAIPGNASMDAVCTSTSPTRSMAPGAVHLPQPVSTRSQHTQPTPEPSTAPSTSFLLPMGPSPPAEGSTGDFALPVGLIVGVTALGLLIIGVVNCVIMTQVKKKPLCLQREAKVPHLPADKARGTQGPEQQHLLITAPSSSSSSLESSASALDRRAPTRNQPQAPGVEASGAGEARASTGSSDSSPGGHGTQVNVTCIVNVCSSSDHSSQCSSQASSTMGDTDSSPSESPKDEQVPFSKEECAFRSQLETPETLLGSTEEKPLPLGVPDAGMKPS
Experimental: (§1) CHO cells that stably overexpressed human TNFR2 were used for experiments. The cells were resuscitated and passaged until in good state, and the expression level of human TNFR2 on the cells was assessed by FACS. Compared to the isotype control, the assay could be carried out when the fold change of mean fluorescence intensity (MFI) was more than 100 times.
(§2) CHO-TNFR2 cells were digested, washed twice with DPBS and stained with Live/Dead (L/D) at room temperature for 20 min, and then seeded at 1×10⁵ cells/50 μl/well. […] The diluted antibodies were added 50 μl/well into wells pre-seeded with cells, and gently blown and mixed to make the final concentrations of the antibodies to 20, 6.67, 2.22, 0.74, 0.247, 0.08, 0.027 and 0 nM, respectively followed by incubation at 4° C. for 30 min. […] After washing twice with the staining buffer, 100 μl/well of PE-streptavidin was added and incubated at 4° C. for 30 min. After additional washing with the staining buffer twice, 150 μl resuspended cells was analyzed using an flow cytometry. Taking the logarithmic value of the antibody concentrations as abscissa and the corresponding MFI value as ordinate, the inhibition curve of the antibody was drawn, and the IC50 value was calculated by four parameters fitting.

mouse TNFR2 = biological target: T2, mouse TNFR2 (mouse, UniProt P25119 23-258, limits assumed); experiment: ELISA
T2 sequence (looked up): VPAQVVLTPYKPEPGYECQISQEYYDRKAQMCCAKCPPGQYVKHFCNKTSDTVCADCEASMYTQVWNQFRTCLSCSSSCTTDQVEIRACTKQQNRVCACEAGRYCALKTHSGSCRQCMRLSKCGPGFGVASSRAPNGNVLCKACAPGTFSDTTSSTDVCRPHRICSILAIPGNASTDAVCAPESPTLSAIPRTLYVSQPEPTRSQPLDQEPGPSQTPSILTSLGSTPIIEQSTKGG

human CREG-His protein = biological target: T3, human CREG-His protein (human, UniProt O75629 32-220, limits assumed); experiment: ELISA
T3 construct: Control antigen in ELISA; also called control human CREG-His
T3 sequence (looked up): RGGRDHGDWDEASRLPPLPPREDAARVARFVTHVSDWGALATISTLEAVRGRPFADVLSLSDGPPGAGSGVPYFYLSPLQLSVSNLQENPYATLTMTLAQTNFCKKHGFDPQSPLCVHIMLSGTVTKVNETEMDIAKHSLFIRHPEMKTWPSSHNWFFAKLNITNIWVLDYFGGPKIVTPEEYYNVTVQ

[2] = biological target: T1, human TNFR2 on the cell surface …; experiment: flow cytometry, blocking of TNFα-biotin on CHO-TNFR2 cells
Experimental: as §1, §2

[3] = biological target: T1, human TNFR2 on the cell surface …; experiment: cell-based or functional assay
[4] = biological target: T4, Human TNFR2 recombinant protein (Sino 10417-H08H) (human, UniProt P20333 23-257); experiment: SPR Biacore, antibody on Protein A chip, TNFR2 analyte
T4 construct: also called hTNFR2 (His tag)
T4 sequence (looked up): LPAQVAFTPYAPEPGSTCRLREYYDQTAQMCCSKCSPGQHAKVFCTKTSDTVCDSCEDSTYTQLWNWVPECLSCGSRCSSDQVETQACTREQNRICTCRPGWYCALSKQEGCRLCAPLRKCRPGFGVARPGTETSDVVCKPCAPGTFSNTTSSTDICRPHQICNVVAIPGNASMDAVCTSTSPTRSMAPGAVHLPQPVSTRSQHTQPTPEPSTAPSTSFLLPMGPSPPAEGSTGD
Experimental: (§3) In this experiment, Protein A chip was used, and the time required for the chip to capture the diluted antibody was determined by manual run, so that the Rmax of the saturated binding antigen was 50 RU. Human TNFR2 (Sino 10417-H08H) and cynomolgus TNFR2 (Sino 90102-C08H) were diluted to 32, 16, 8, 4, 2 nM. The affinity of antibody and antigen was measured by multi-cycle kinetics. In each cycle, anti-TNFR2 antibodies were injected prior to the injection of gradient concentrations of TNFR2 protein allowing the occurrence of antibody-antigen association and dissociation. After each cycle, the Protein A chip was regenerated with Glycine pH1.5 (to remove the protein on the chip). BIAcore T200 analysis software was used to calculate the affinity KD of antibody binding to antigen.

[5] = biological target: T5, cynomolgus TNFR2 (Sino 90102-C08H) (cynomolgus, UniProt A0A2K5VET2 132-366); experiment: as above
T5 construct: also called CynoTNFR2 (His tag)
T5 sequence: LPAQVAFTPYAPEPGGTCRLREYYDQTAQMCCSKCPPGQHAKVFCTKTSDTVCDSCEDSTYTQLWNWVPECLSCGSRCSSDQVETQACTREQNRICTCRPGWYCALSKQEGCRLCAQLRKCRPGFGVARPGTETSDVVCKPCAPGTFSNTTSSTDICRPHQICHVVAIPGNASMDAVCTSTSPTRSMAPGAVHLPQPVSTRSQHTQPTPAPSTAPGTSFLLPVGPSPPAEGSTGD
Experimental: as §3

[6] = biological target: T1, human TNFR2 on the cell surface …; experiment: cell-based or functional assay; remark: listed apart in the source

B1: TNFR2 antibody #309 (antibody, V domains shown)
VH: EVQLQESGAELVKPGASVKLSCKASGYTFTSYWIHWVKLRPGQGFEWIGEINPNNGGTDYNEKFKRKATLTVDKSSSTAYMELSSLTSEDSAIYYCTIDSMITTTWFAYWGQGTTVTVSS
VL: EIVMTQSQKLMSTVVGDRVSVTCKASQNVGTNVAWFQQKPGQSPKALINSASYRYSGVPDRFTGSGSGTDFTLTISSVQSEDLAEYFCQQYNSYPFTFGSGTKLEIK
B1 was tested, and the AUC % [1] was 92.4%, the binding result (mouse TNFR2) was “no binding (tested: 12 ng/mL)” and the binding result (human CREG-His protein) was “no binding (tested: 12 ng/mL)”. The IC50 [2] was 0.116 µg/mL, the “% AUC versus positive control (#52), ADCC against Treg” value (“% AUC versus positive control” for short) [3] was 56% and the Kd [4] was 1.44 nM. For the same binder, the koff [4] was 0.000748 s⁻¹, the kon [4] was 519000 M⁻¹ s⁻¹ and the Kd [5] was 2.48 nM. For the same binder, the koff [5] was 0.00212 s⁻¹ and the kon [5] was 854000 M⁻¹ s⁻¹.

B2: TNFR2 antibody #352 (antibody, V domains shown)
VH: EVQLQESGPGLVAPSQSLSITCTVSGFSLTSYGVHWVRQPPGKGLEWLVVIWSDGGTTYNSALKSRLSISKDNSKSQVFLKMNSLQTDDTAMYYCARHDDDGYYAMDYWGQGTTVTVSS
VL: DIVLTQSPSLMSASPGEKVTMTCSASSSVGYMYWYQQKPRSSPKPWIYLTSNLASGVPARFSGSGSGTSYSLTISSMEVEDAATYYCQQWSSDPFTFGSGTKLEIK
B2 was tested, and the AUC % [1] was 116%, the binding result (mouse TNFR2) was “no binding (tested: 28 ng/ml)” and the binding result (human CREG-His protein) was “no binding (tested: 28 ng/ml)”. For the same binder, the IC50 [2] was 0.056 µg/mL, the “% AUC versus positive control” value [3] was 61.4% and the Kd [4] was 1.41 nM. The koff [4] was 0.00225 s⁻¹, the kon [4] was 1.59e+06 M⁻¹ s⁻¹ and the Kd [5] was 0.943 nM. The koff [5] was 0.00243 s⁻¹ and the kon [5] was 2.57e+06 M⁻¹ s⁻¹.

B3: TNFR2 antibody #395 (antibody, V domains shown)
VH: EVQLQESGPVLVQPSQSLSITCTVSGFSLTSYSVHWVRQSPGKGLEWLGVIWSDGGTDYSAAFISRLSISKDNSKSQVFFKMNSLQADDTAIYYCARNDDGGDYAMDYWGQGTTVTVSS
VL: EIVLTQSPALMSASPGEKVTMTCSASSSVSYMYWYQQKPRSSPKPWIYLTSNLASGVPARFSGSGSGTSYSLTISSMEAEDAATYYCQQWSSNPLTFGAGTKLEIK
With B3 the AUC % [1] was 107%, the binding result (mouse TNFR2) was “no binding (tested: 28 ng/ml)” and the binding result (human CREG-His protein) was “no binding (tested: 28 ng/ml)”. For the same binder, the IC50 [2] was 0.021 µg/mL, the “% AUC versus positive control” value [3] was 59.3% and the Kd [4] was 0.14 nM. For the same binder, the koff [4] was 0.000237 s⁻¹, the kon [4] was 1.7e+06 M⁻¹ s⁻¹ and the Kd [5] was 0.0977 nM. The koff [5] was 0.000276 s⁻¹ and the kon [5] was 2.83e+06 M⁻¹ s⁻¹.

B4: TNFR2 antibody #224 (antibody, V domains shown)
VH: EVQLQESGPEIVKPGASVKLSCTASGFNNKDIYMHWVKQRPEQGLEWIGRIDPATGNTKHDPKFQDKATLSSDTSSNTAYLQFSSLTSEDTAVYYCAHSPYGDFGAMDYWGQGTTVTVSS
VL: DIQMTQSPAIMSASLGERVTMTCTASSSVSSNYLHWYQQKPGSSPKLWIYSTSNLPSGVPARFSGSGSGTSYSLTISSMEAEDAATYYCHQYHRSPWTFGGGTKLEIK
B4 was tested, and the AUC % [1] was 100%, the binding result (mouse TNFR2) was “no binding (tested: 28 ng/ml)” and the binding result (human CREG-His protein) was “no binding (tested: 28 ng/ml)”. For the same binder, the IC50 [2] was 0.128 µg/mL, the “% AUC versus positive control” value [3] was 48.1% and the Kd [4] was 0.101 nM. For the same binder, the koff [4] was 2.36e-05 s⁻¹, the kon [4] was 233000 M⁻¹ s⁻¹ and the Kd [5] was 0.273 nM. The koff [5] was 0.000116 s⁻¹ and the kon [5] was 425000 M⁻¹ s⁻¹.

B5: TNFR2 antibody #125 (antibody, V domains shown)
VH: EVQLQESGGGLVQPGGSLNLSCAASGFAFSIYDLSWVRQTPEKRLEWVAYINNGGISTYYSDTVKGRFTISRDNAKNTLYLQMSSLKSEDTAMYYCVRGPFYGSANYFDYWGQGTTVTVSS
VL: DIQMTQSPASLSLSVGETVTITCRASENIYSNLAWYQQKQGKSPQLLVYDATKLAEGVPSRFSGSESGTQYSLKINSLQSEDFGTYYCQHFWVTPWTFGGGTKLEIK
B5 was tested, and the AUC % [1] was 121%, the “proliferation inhibition (TNFα-induced Treg cell proliferation, against anti-Hel)” value (“proliferation inhibition” below) [6] was 5.2% and the binding result (mouse TNFR2) was “no binding (tested: 28 ng/ml)”. For the same binder, the binding result (human CREG-His protein) was “no binding (tested: 28 ng/ml)”, the IC50 [2] was 0.109 µg/mL and the “% AUC versus positive control” value [3] was 69.6%. The Kd [4] was 0.0681 nM, the koff [4] was 5.57e-05 s⁻¹ and the kon [4] was 817000 M⁻¹ s⁻¹. The Kd [5] was 0.151 nM, the koff [5] was 0.000155 s⁻¹ and the kon [5] was 1.02e+06 M⁻¹ s⁻¹.

B6: TNFR2 antibody #088 (antibody, V domains shown)
VH: EVQLQESGGGLVQPGGSLNLSCAASGFAFSTYDLSWVRQTPGKRLEWVAYINNGGISTYYSDTVKGRFTITRDNAKNTLYLQMSSLKSEDTAMYYCVRGPFYGSANYFDYWGQGTTVTVSS
VL: DILMTQSPASLSLFVGETVTITCRASENIYSNLAWYQQKQGKSPQLLVYDATKLAEGVPSRFSGSESGTQYSLKINSLQSEDFGTYYCQHFWVTPWTFGGGTKLEIK
With B6 the AUC % [1] was 75.4%, the “proliferation inhibition” value [6] was 6.9% and the binding result (mouse TNFR2) was “no binding (tested: 12 ng/mL)”. The binding result (human CREG-His protein) was “no binding (tested: 12 ng/mL)”, the IC50 [2] was 0.185 µg/mL and the “% AUC versus positive control” value [3] was 45.3%. It also gave a Kd [4] of 0.107 nM, a koff [4] of 5.46e-05 s⁻¹ and a kon [4] of 510000 M⁻¹ s⁻¹. It also gave a Kd [5] of 0.286 nM, a koff [5] of 0.000172 s⁻¹ and a kon [5] of 601000 M⁻¹ s⁻¹.

B7: TNFR2 antibody #001 (antibody, V domains shown)
VH: EVQLQESGGGLVQPGGSLNLSCAASGFAFSTYDLSWVRQTPEKRLEWVAYINNGGISTYYSDTVKGRFTISRDNAKNTLYLQMSSLKSEDTAMYYCVRGPFYGSANYFDYWGQGTTVTVSS
VL: EIVMTQSPASLSLSVGETVTITCRTSESIYSNLPWYQQKQGKSPQLLVYDATKLAEGVPSRFSGSESGTQYSLKINSLQSEDFGTYYCQHFWVTPWTFGGGTKLEIK
notes: also called antibody #1
With B7 the AUC % [1] was 88.3%, the “proliferation inhibition” value [6] was 17.1% and the binding result (mouse TNFR2) was “no binding (tested: 28 ng/ml)”. For the same binder, the binding result (human CREG-His protein) was “no binding (tested: 28 ng/ml)”, the IC50 [2] was 0.14 µg/mL and the “% AUC versus positive control” value [3] was 80.8%. For the same binder, the Kd [4] was 0.161 nM, the koff [4] was 8.95e-05 s⁻¹ and the kon [4] was 556000 M⁻¹ s⁻¹. It also gave a Kd [5] of 0.279 nM, a koff [5] of 0.000185 s⁻¹ and a kon [5] of 662000 M⁻¹ s⁻¹.
